Results taken from the supplement of paper PMC10598134.
± gives the standard deviation.

Test: collision cross section of modified peptide (TIMS, N2, iRT-aligned); higher = larger / more extended gas-phase ion
Method in brief: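 Collision cross section values rest on the Mason-Schamp equation applied to calibrated, run-aligned mobility data from synthetic peptides. Mobility (1/K0) was calibrated with three reference ions and aligned per run to the median iRT peptide deviation, and 1–3 technical replicates of the most abundant feature per charge state were averaged. Data came from a timsTOF Pro/HT in dda-PASEF mode (nitrogen, ~2.4 mbar) after a 120-min nanoflow C18 gradient at 60 °C.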

[1] = charge state: 2, modification: Acetyl (K)
[2] = charge state: 2, modification: Biotin
[3] = charge state: 2, modification: Butyryl
[4] = charge state: 2, modification: Crotonyl
[5] = charge state: 2, modification: Dimethyl (K)
[6] = charge state: 2, modification: Formyl
[7] = charge state: 2, modification: Glutarylation
[8] = charge state: 2, modification: GlyGly (K)
[9] = charge state: 3, modification: GlyGly (K)
[10] = charge state: 2, modification: Malonyl
[11] = charge state: 2, modification: Methyl (K)
[12] = charge state: 3, modification: Methyl (K)
[13] = charge state: 2, modification: Propionyl
[14] = charge state: 2, modification: Succinyl
[15] = charge state: 2, modification: Trimethyl (K)
[16] = charge state: 3, modification: Trimethyl (K)
[17] = charge state: 2, modification: hydroxyisobutyryl
[18] = charge state: 2, modification: HexNAc (ST)
[19] = charge state: 3, modification: HexNAc (ST)
[20] = charge state: 3, modification: Dimethyl (K)
[21] = charge state: 2, modification: Nitro (Y)
[22] = charge state: 3, modification: Nitro (Y)
[23] = charge state: 2, modification: Phospho (Y)

## KDYQPGITFIVVQK [_KDYQP(Hydroxyproline)GITFIVVQK_]
Charge state: 3, modification: Hydroxyproline
  collision cross section: 502.4 Å²

## KFGVLSDNFK [_K(Acetyl (K))FGVLSDNFK_]
[1]
  collision cross section: 370.76 ± 0.46 Å²

## KFGVLSDNFK [_K(Biotin)FGVLSDNFK_]
[2]
  collision cross section: 394.71 ± 3.8 Å²

## KFGVLSDNFK [_K(Butyryl)FGVLSDNFK_]
[3]
  collision cross section: 377.44 ± 0.84 Å²

## KFGVLSDNFK [_K(Crotonyl)FGVLSDNFK_]
[4]
  collision cross section: 376.47 ± 0.8 Å²

## KFGVLSDNFK [_K(Dimethyl (K))FGVLSDNFK_]
[5]
  collision cross section: 367.27 ± 1.5 Å²

## KFGVLSDNFK [_K(Formyl)FGVLSDNFK_]
[6]
  collision cross section: 368.1 ± 0.89 Å²

## KFGVLSDNFK [_K(Gluratylation)FGVLSDNFK_]
[7]
  collision cross section: 380.33 ± 0.73 Å²

## KFGVLSDNFK [_K(GlyGly (K))FGVLSDNFK_]
[8]
  collision cross section: 380.5 ± 0.25 Å²
[9]
  collision cross section: 435.06 ± 2 Å²

## KFGVLSDNFK [_K(Malonyl)FGVLSDNFK_]
[10]
  collision cross section: 373.81 ± 0.63 Å²

## KFGVLSDNFK [_K(Methyl (K))FGVLSDNFK_]
[11]
  collision cross section: 372.37 ± 0.47 Å²
[12]
  collision cross section: 448.39 ± 4.9 Å²

## KFGVLSDNFK [_K(Propionyl)FGVLSDNFK_]
[13]
  collision cross section: 374.07 ± 0.33 Å²

## KFGVLSDNFK [_K(Succinyl)FGVLSDNFK_]
[14]
  collision cross section: 376.58 ± 0.24 Å²

## KFGVLSDNFK [_K(Trimethyl (K))FGVLSDNFK_]
[15]
  collision cross section: 372.9 ± 0.61 Å²
[16]
  collision cross section: 457.56 Å²

## KFGVLSDNFK [_K(hydroxyisobutyryl)FGVLSDNFK_]
[17]
  collision cross section: 378.39 ± 0.91 Å²

## KITESVAETAQTIK [_KITESVAETAQT(HexNAc (ST))IK_]
[18]
  collision cross section: 451.91 ± 0.56 Å²
[19]
  collision cross section: 504.11 ± 1.1 Å²

## KSQAGASELGPFSDPR [_KSQAGASELGPFS(HexNAc (ST))DPR_]
[19]
  collision cross section: 503.83 ± 1.1 Å²

## KVQFAPEK [_KVQFAP(Hydroxyproline)EK_]
Charge state: 2, modification: Hydroxyproline
  collision cross section: 331.99 ± 1.4 Å²

## KVTLSVLSR [_KVT(HexNAc (ST))LSVLSR_]
[18]
  collision cross section: 375.11 ± 0.13 Å²
[19]
  collision cross section: 463.47 ± 1 Å²

## KYEEIDNAPEER [_K(Acetyl (K))YEEIDNAPEER_]
[1]
  collision cross section: 408.98 ± 1.6 Å²
Charge state: 3, modification: Acetyl (K)
  collision cross section: 493.17 ± 8.3 Å²

## KYEEIDNAPEER [_K(Biotin)YEEIDNAPEER_]
[2]
  collision cross section: 430.04 ± 3.1 Å²
Charge state: 3, modification: Biotin
  collision cross section: 521.46 ± 0.34 Å²

## KYEEIDNAPEER [_K(Butyryl)YEEIDNAPEER_]
[3]
  collision cross section: 413.71 ± 1.1 Å²
Charge state: 3, modification: Butyryl
  collision cross section: 492.73 ± 3.5 Å²

## KYEEIDNAPEER [_K(Crotonyl)YEEIDNAPEER_]
[4]
  collision cross section: 413.83 ± 0.55 Å²
Charge state: 3, modification: Crotonyl
  collision cross section: 493.07 ± 1.6 Å²

## KYEEIDNAPEER [_K(Dimethyl (K))YEEIDNAPEER_]
[5]
  collision cross section: 402.53 ± 1.1 Å²
[20]
  collision cross section: 484.37 ± 1.6 Å²

## KYEEIDNAPEER [_K(Formyl)YEEIDNAPEER_]
[6]
  collision cross section: 405.5 ± 0.74 Å²

## KYEEIDNAPEER [_K(Gluratylation)YEEIDNAPEER_]
[7]
  collision cross section: 417.33 ± 0.59 Å²
Charge state: 3, modification: Glutarylation
  collision cross section: 495.54 ± 1 Å²

## KYEEIDNAPEER [_K(GlyGly (K))YEEIDNAPEER_]
[8]
  collision cross section: 416.44 ± 0.85 Å²
[9]
  collision cross section: 499.05 ± 3 Å²

## KYEEIDNAPEER [_K(Malonyl)YEEIDNAPEER_]
[10]
  collision cross section: 410.49 ± 0.6 Å²
Charge state: 3, modification: Malonyl
  collision cross section: 491.92 ± 5.7 Å²

## KYEEIDNAPEER [_K(Methyl (K))YEEIDNAPEER_]
[11]
  collision cross section: 398.83 ± 1.1 Å²
[12]
  collision cross section: 466.31 ± 3.7 Å²

## KYEEIDNAPEER [_K(Propionyl)YEEIDNAPEER_]
[13]
  collision cross section: 411.41 ± 0.64 Å²
Charge state: 3, modification: Propionyl
  collision cross section: 491.8 Å²

## KYEEIDNAPEER [_K(Succinyl)YEEIDNAPEER_]
[14]
  collision cross section: 412.18 ± 0.54 Å²
Charge state: 3, modification: Succinyl
  collision cross section: 490.15 Å²

## KYEEIDNAPEER [_K(Trimethyl (K))YEEIDNAPEER_]
[15]
  collision cross section: 405.59 ± 0.61 Å²
[16]
  collision cross section: 490.14 ± 2.4 Å²

## KYEEIDNAPEER [_K(hydroxyisobutyryl)YEEIDNAPEER_]
[17]
  collision cross section: 416.12 ± 0.31 Å²
Charge state: 3, modification: hydroxyisobutyryl
  collision cross section: 497.05 ± 3.9 Å²

## LAEEENKAK [_LAEEENK(Acetyl (K))AK_]
[1]
  collision cross section: 348.53 ± 3.9 Å²

## LAEEENKAK [_LAEEENK(Biotin)AK_]
[2]
  collision cross section: 371.22 Å²

## LAEEENKAK [_LAEEENK(Butyryl)AK_]
[3]
  collision cross section: 353.86 ± 0.84 Å²

## LAEEENKAK [_LAEEENK(Crotonyl)AK_]
[4]
  collision cross section: 351.41 ± 1.1 Å²

## LAEEENKAK [_LAEEENK(Dimethyl (K))AK_]
[5]
  collision cross section: 348.03 ± 0.59 Å²
[20]
  collision cross section: 411.22 ± 2.8 Å²

## LAEEENKAK [_LAEEENK(Formyl)AK_]
[6]
  collision cross section: 342.64 ± 1.5 Å²

## LAEEENKAK [_LAEEENK(Gluratylation)AK_]
[7]
  collision cross section: 353.09 ± 0.078 Å²

## LAEEENKAK [_LAEEENK(GlyGly (K))AK_]
[8]
  collision cross section: 356.17 ± 0.39 Å²
[9]
  collision cross section: 428.57 ± 0.75 Å²

## LAEEENKAK [_LAEEENK(Malonyl)AK_]
[10]
  collision cross section: 346.72 ± 0.74 Å²

## LAEEENKAK [_LAEEENK(Methyl (K))AK_]
[11]
  collision cross section: 347.67 ± 0.66 Å²
[12]
  collision cross section: 422.11 Å²

## LAEEENKAK [_LAEEENK(Propionyl)AK_]
[13]
  collision cross section: 352.31 ± 0.33 Å²

## LAEEENKAK [_LAEEENK(Succinyl)AK_]
[14]
  collision cross section: 348.59 ± 0.23 Å²

## LAEEENKAK [_LAEEENK(Trimethyl (K))AK_]
[15]
  collision cross section: 353.67 ± 0.62 Å²
[16]
  collision cross section: 413.12 Å²

## LAEEENKAK [_LAEEENK(hydroxyisobutyryl)AK_]
[17]
  collision cross section: 355.52 ± 0.78 Å²

## LAEQEAHYAVR [_LAEQEAHY(Nitro (Y))AVR_]
[21]
  collision cross section: 388.92 ± 0.55 Å²
[22]
  collision cross section: 469.49 ± 1.9 Å²

## LAEQEAHYAVR [_LAEQEAHY(Phospho (Y))AVR_]
[23]
  collision cross section: 408.57 ± 0.76 Å²
Charge state: 3, modification: Phospho (Y)
  collision cross section: 482.98 ± 0.1 Å²

## LAPEYEAAATR [_LAPEY(Nitro (Y))EAAATR_]
[21]
  collision cross section: 362.69 ± 1.2 Å²
[22]
  collision cross section: 436.11 ± 1.1 Å²

## LAPEYEAAATR [_LAPEY(Phospho (Y))EAAATR_]
[23]
  collision cross section: 374.2 ± 0.063 Å²

## LDEKENLSAK [_LDEK(Acetyl (K))ENLSAK_]
[1]
  collision cross section: 366.13 ± 0.94 Å²

## LDEKENLSAK [_LDEK(Biotin)ENLSAK_]
[2]
  collision cross section: 382.87 Å²

## LDEKENLSAK [_LDEK(Butyryl)ENLSAK_]
[3]
  collision cross section: 370.93 ± 0.84 Å²

## LDEKENLSAK [_LDEK(Crotonyl)ENLSAK_]
[4]
  collision cross section: 370.68 ± 0.26 Å²

## LDEKENLSAK [_LDEK(Dimethyl (K))ENLSAK_]
[5]
  collision cross section: 364.75 ± 0.28 Å²
[20]
  collision cross section: 441.27 Å²

## LDEKENLSAK [_LDEK(Formyl)ENLSAK_]
[6]
  collision cross section: 361.57 ± 0.88 Å²

## LDEKENLSAK [_LDEK(Gluratylation)ENLSAK_]
[7]
  collision cross section: 373.82 ± 0.62 Å²

## LDEKENLSAK [_LDEK(GlyGly (K))ENLSAK_]
[8]
  collision cross section: 379.07 ± 1.5 Å²
[9]
  collision cross section: 437.31 ± 1.9 Å²

## LDEKENLSAK [_LDEK(Malonyl)ENLSAK_]
[10]
  collision cross section: 361.65 ± 0.75 Å²

## LDEKENLSAK [_LDEK(Methyl (K))ENLSAK_]
[11]
  collision cross section: 366.29 ± 0.55 Å²
